The values that follow come from patent US20030143191A1 (published 2003).

The assay concerns the target T1, CCR5 (G-protein coupled chemokine receptor) on human PBMC (human, UniProt P51681 1-352).
T1 construct: whole, on cells; The cells were primary PBMC, not transfectants, so the receptor is assigned through the CCR5 agonist MIP-1β; also called G-protein Chemokine Receptor CCR5
As to the kind of experiment: 125I-MIP-1β competition binding on human PBMC cultured 2 days; labelled competitor 0.17 nM 125I-MIP-1β; cells preincubated with supernatant 45 min at 37 °C, then hot ligand 60 min at RT; cell pellet collected by density centrifugation through oil; readout cpm. How it is done:
Human PBMC were purified from whole blood and cultured for 2 days. […] After 60 minutes, cell bound ¹²⁵I-MIP-1 was separated from unbound ¹²⁵I-MIP-1, and the radioactivity determined.
PBMCs were grown, purified, and suspended in calcium buffer as described above in Example 49.

T1 sequence (P51681 whole entry): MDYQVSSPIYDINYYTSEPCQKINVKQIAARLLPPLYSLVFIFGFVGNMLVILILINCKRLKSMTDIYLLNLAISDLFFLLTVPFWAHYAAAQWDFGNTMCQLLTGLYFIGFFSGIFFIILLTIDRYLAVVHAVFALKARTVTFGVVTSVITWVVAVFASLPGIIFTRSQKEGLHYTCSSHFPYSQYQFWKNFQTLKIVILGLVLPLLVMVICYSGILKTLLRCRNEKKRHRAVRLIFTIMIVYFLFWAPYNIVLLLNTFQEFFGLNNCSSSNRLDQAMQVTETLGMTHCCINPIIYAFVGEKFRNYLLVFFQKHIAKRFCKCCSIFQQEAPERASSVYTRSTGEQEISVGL

B1: Ckb1 construct 1832 (pC4:MPIFsp.CKB1(G28-N93)), secreted product ck-beta-1 G28-N93 (ligand)
chain: GPYHPSECCFTYTTYKIPRQRIMDYYETNSQCSKPGIVFITKRGHSVCTNPSDKWVQDYIKDMKEN
notes: Non-fusion Ckb1, expressed in mammalian cells from pC4
Turning to B1, the binding result is given as “binds”.
